The values below come from PMC6882858, “Seryl tRNA synthetase cooperates with POT1 to regulate telomere length and cellular senescence”.

B1: Telomere [TTAGGG]5 (dsDNA)
DNA 1: TTAGGGTTAGGGTTAGGGTTAGGGTTAGGG
DNA 2: CCCTAACCCTAACCCTAACCCTAACCCTAA
B2: VEGFA promoter (dsDNA)
DNA 1: GGCGGGGCGGAGCCATGCGCCCCCCCCTTT
DNA 2: AAAGGGGGGGGCGCATGGCTCCGCCCCGCC
B3: Control random DNA (dsDNA)
DNA 1: TCGAAGTCGAAGCATGGGTCGAAGCATGGG
DNA 2: CCCATGCTTCGACCCATGCTTCGACTTCGA

Sequence of SerRS (seryl-tRNA synthetase) (P49591 whole entry): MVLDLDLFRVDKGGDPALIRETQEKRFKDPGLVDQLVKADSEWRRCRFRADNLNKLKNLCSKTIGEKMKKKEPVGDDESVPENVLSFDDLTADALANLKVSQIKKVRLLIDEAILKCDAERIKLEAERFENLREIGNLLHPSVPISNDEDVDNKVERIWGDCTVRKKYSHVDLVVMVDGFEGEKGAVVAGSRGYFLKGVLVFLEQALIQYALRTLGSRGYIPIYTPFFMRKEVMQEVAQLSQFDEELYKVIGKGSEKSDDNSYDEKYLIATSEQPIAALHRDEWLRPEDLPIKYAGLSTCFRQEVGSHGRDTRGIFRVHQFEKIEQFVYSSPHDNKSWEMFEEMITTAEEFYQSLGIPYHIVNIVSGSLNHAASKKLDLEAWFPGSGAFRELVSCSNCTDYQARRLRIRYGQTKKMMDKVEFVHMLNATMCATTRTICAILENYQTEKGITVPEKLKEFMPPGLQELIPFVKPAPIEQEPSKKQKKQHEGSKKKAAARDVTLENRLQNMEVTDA

The data set has as its target SerRS (seryl-tRNA synthetase) (human, UniProt P49591 1-514). In words: EMSA; 5 mM MgCl2, poly(dG-dC); 20 mM Tris-HCl pH 8.0, 60 mM KCl, 5 mM MgCl2, 0.1 mg/mL BSA, 10 ng/uL poly(dG-dC), 1 mM DTT, 0.8 pmol labeled DNA, 30 min, room temperature; 5% native PAGE. Particulars: protein: recombinant; tags: His6 (pET20b; Ni-NTA); chain copies: 2; label: 5' 32P; blunt.
As to B1, the binding result is reported as “binds”. On to B2, for which the binding result is reported as “binds”. Consider B3, for which the binding result was “no binding”.
